According to the supplement of paper PMC9170038:

Tested on: MS2 coat protein
Assay: apparent KD of MS2 coat protein; designed switch direction (-1 OFF switch, 1 ON switch): 1; higher = weaker reporter binding
How it was run: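 Apparent KD, taken as the median over clusters for each design, was obtained by curve-fitting normalised cluster fluorescence. Designed RNA switches had been transcribed on Illumina chips by stalled E. coli RNA polymerase and titrated with SNAP-549-labelled MS2 coat protein, doubling from 0.7 or 1.5 nM to 3 µM.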

[1] = input ligand: microRNA oligo, concentration not stated
[2] = Eterna round: R95, input ligand: FMN 200 uM
[3] = Eterna round: R95, input ligand: microRNA oligo, concentration not stated
[4] = Eterna round: R95, input ligand: none

| Sequence | apparent KD of MS2 coat protein (input ligand: FMN 200 uM) | apparent KD of MS2 coat protein [1] | apparent KD of MS2 coat protein (input ligand: none) | apparent KD of MS2 coat protein [2] | apparent KD of MS2 coat protein [3] | apparent KD of MS2 coat protein [4] |
| --- | --- | --- | --- | --- | --- | --- |
| AUAAACAGGCUAGGAUAUCCGGAAACUACAGGACACGACCCUGUGGACAUGAGGAUCACCCAUGUGGAGAAGGAGCCACAUGAA [Onvete] (Eterna round: R96, puzzle: Same State NG 2) | 31.4 nM | 223 nM | 145 nM |  |  |  |
| AUUAUACAUGAGGAUCACCCAUGUCAACAAAGUCGAGGAUAUGGGCAAAUAAAAUAAGAACCAGAAGGCGAAUAAU [salish99_ss1_r3_069] (Eterna round: R96, puzzle: Same State 1) | 69.2 nM | 189 nM | 293 nM |  |  |  |
| UAUCCAUAGAUAGGAUAUUAGUGAACAUGAGGAUCACCCAUGUUUUGCUUGGUUUUAAGUUAAUCUGAGAAGGAUCUUGAUGAA [SameState NG2 #5] (Eterna round: R96, puzzle: Same State NG 2) | 20.3 nM | 14.6 nM | 20.4 nM |  |  |  |
| GGAGCCGGCACCGAGGAUAUUCAUAUUAAAACAUGAGGAUCACCCAUGUACCGCAGAAGCGGUUGGGAGAAGGCGGAUCGGCUCG [Xeonanis - 23] (Eterna round: R96, puzzle: Same State 2) | 31.3 nM | 311 nM | 534 nM |  |  |  |
| UUACUCAUGUAAGGAUAUGCAGCCGAAACGGCUGCAGAAGGUACUAUAAUACAUGAGGAUCACCCAUGUCUCUAUUAUUUAGUU [Mat - Same State NG 1 - JL mod - D94] (Eterna round: R96, puzzle: Same State NG 1) | 73.4 nM | 38.2 nM | 58 nM |  |  |  |
| ACUUGCUUUUUGCUCAUUUUAUGUCCGAAACAUGAGGAUCACCCAUGUGUAGAUUAUGUGUUGUUUUUGAUACGUGA [JR_SHM208A_Sub067] (puzzle: Sensor for hsa-mir-208a) |  |  |  | 24.6 nM | 20.7 nM | 26.3 nM |
| GGUAGGUUACUACCAAUCUACAUGAGGAUCACCCAUGUGUAGGAGGAUAUGGUACCUAUUUGGUACCAGAAGGCCUGAUUAAUU [Fiskers NG3ss - 8] (Eterna round: R96, puzzle: Same State NG 3) | 115 nM | 80.4 nM | 247 nM |  |  |  |
| GGUAAGAAUUAAGGAUAUUGAAUACAUAUGUUUAACAUGAGGAUCACCCAUGUGGGUUGCGGUGUCGAGAAGGUAAAUUACUAG [Mat - same State NG 2 - JL mod - D99] (Eterna round: R96, puzzle: Same State NG 2) | 281 nM | 179 nM | 229 nM |  |  |  |
| GCUAGAAUAAAUGCCUACAUGAGGAUCACCCAUGUAUGUAGGCAGGAUAUCGUUUGCAAAGCAAACGAGAAGGGCCUUACUAGC [Mat - Same State NG 3 - JL Mod - D29] (Eterna round: R96, puzzle: Same State NG 3) | 21.5 nM | 43 nM | 55.7 nM |  |  |  |
| UGGUACAUGGGAGGAUAUCAUGCAGACAUGAGGAUCACCCAUGUAGCCAUGGAGACAUGGGUAUAUGAGAAGGCCCAUGUACCU [JL SSNG1 3.53] (Eterna round: R96, puzzle: Same State NG 2) | 145 nM | 37.7 nM | 207 nM |  |  |  |
| AGGCUGAGUCGAGGAUAUUAUGGAUCCUCUAAUACAUGAGGAUCACCCAUGUAAUUAAUUAUACAUGAGAAGGUGACUCAGCCA [SSNG2/12-B3] (Eterna round: R96, puzzle: Same State NG 2) | 612 nM | 129 nM | 280 nM |  |  |  |
| ACUAGAUCGAAAGAUCUAGAAAACGAGUAACAUGAGGAUCACCCAUGUUCAUGUUGCUCGUCUUAAGCCGAAAGGCG [JL ALT 15] (Eterna round: R96, puzzle: Sensor for hsa-mir-208a) | 71.5 nM | 38 nM | 22.8 nM |  |  |  |
| UGGUACAUGGGAGGAUAUCCUAUGGUGACAUGAGGAUCACCCAUGUAAUUGGAGCCGAAAGGCAUGGAGAAGGCCCAUGUACCU [JL SSNG1 3.78] (Eterna round: R96, puzzle: Same State NG 2) | 40.2 nM | 31.4 nM | 44.1 nM |  |  |  |
| GGAGCCAAGGCAGGAUAUUCAUAUAAAUUAACAUGAGGAUCACCCAUGUAGGCCAGAAGGCCUUGGGAGAAGGGCCAUGGCUCG [Xeonanis - 13 mod8] (Eterna round: R96, puzzle: Same State NG 2) | 21.6 nM | 143 nM | 157 nM |  |  |  |
| GCUGGAAAUCACAUGAGGAUCACCCAUGUUCCGGAAACGGCACAGGAUAUCUGUCCGAAAAGGUCAGAGAAGGGUGAAACCAGC [Fiskers NG3ss - 85] (Eterna round: R96, puzzle: Same State NG 3) | 303 nM | 56.1 nM | 105 nM |  |  |  |
| AGAUGUUAAUCAGGAUAUGGGCCCGUGAGGAUCACCCACGGAAAGUAGGUCCAACAGGGCCCAGUCUAGAAGGGAUGGCUAACA [malcolm 80 ssNG2 F5+F7.2] (Eterna round: R96, puzzle: Same State NG 2) | 112 nM | 19.8 nM | 84 nM |  |  |  |
| UGGUAACAUGAGGAUCACCCAUGUCAAAUGAAUCGAGGAUAUGGGAAGGAAGAAGAGAAACUAGAAGGCGAAGUUG [Altered State 1-5 - Jieux - Same State 1] (puzzle: Same State 1) |  |  |  | 89 nM | 101 nM | 127 nM |
| ACUUAGUACAAUUUAGAUCUACAUGAGGAUCACCCAUGUACUGAGGAUAUCAGCUCGUUUAGAGCUGAGAAGGCAGAAGUACUU [SSNG3/8-A3] (Eterna round: R96, puzzle: Same State NG 3) | 54.7 nM | 234 nM | 207 nM |  |  |  |
| CGUAGGCCUCUCAACAUGAGGAUCACCCAUGUACGUGAAACGUAGGAUAUCACACAACUAAUGUGUGAGAAGGGCGCGCCGGAG [Eternabot solution 25] (Eterna round: R96, puzzle: Same State NG 3) |  | 91.4 nM |  |  |  |  |
| GUGGUCUGACAUGAGGAUCACCCAUGUGGAAUAAAUACGGGUUAGGAUAUCUUGAGGAUCACCCAAGAGAAGGGAUCGAUUGUU (Eterna round: R96, puzzle: Same State NG 3) |  | 36.4 nM |  |  |  |  |
| UAAAAGAAGUUAGGAUAUGGUGAAGUACUGUGGCCAGAAGGGACGACUAACCGAGAAAGACAUGAGGAUCACCCAUGUCCACAG [Eternabot solution 20] (Eterna round: R96, puzzle: Same State NG 1) | 86.5 nM | 57 nM | 74.5 nM |  |  |  |
| AAAAUCUACGAAAGUAGAACAAGCUUAAGACAUGAGGAUCACCCAUGUCAUGUCUUAAAACAUGAGGAAACUCAUGA [hsa-mir-208a sensor: 17] (Eterna round: R96, puzzle: Sensor for hsa-mir-208a) | 273 nM | 182 nM | 252 nM |  |  |  |
| GUUACAUGAGGAUCACCCAUGUAUGUGUGGGAGUAAGUGUCUUAGGAUAUCUGUUAUUUAAUUUGAGAGAAGGAAGAUUGUUGU [JMF's solution 47] (Eterna round: R96, puzzle: Same State NG 3) | 134 nM | 71.7 nM | 89.1 nM |  |  |  |
| GUAUAACAUGAGGAUCACCCAUGUCAUCUAAGUCGAGGAUAUGGGCAAAUAUAAUAAGAACCAGAAGGCGAAUAUG [Mat - Same State 1 - Mod of UCT - D34] (puzzle: Same State 1) |  |  |  | 57.8 nM | 111 nM | 119 nM |
| GUGAAGAAUUAAGGAUAUUGAAUACAUAUGUUUAACAUGAGGAUCACCCAUGUGGGUUGCGGUAUCGAGAAGGUAAAUUACUAG [salish99_SSNG2_r04_031] (Eterna round: R96, puzzle: Same State NG 2) | 95.5 nM | 89.9 nM | 118 nM |  |  |  |
| AAUGCACAUGAGGAUCACCCAUGUAAGACAAAGACAGGAUAUGGGCCGCAUGGCUCUGGCCCAGAAGGGUCAGUCG [Biorinin] (puzzle: Same State 1) |  |  |  |  | 19.8 nM |  |
| AAGCAGAGGCAAGGAUAUGUGAAGACCCAGCCUAGGCUGGGCACAUGAGGAUCACCCAUGUACAAACAGAAGGUGUAACCAGGC [Eternabot solution 18] (Eterna round: R96, puzzle: Same State NG 2) | 40.5 nM | 116 nM | 161 nM |  |  |  |
